Three molecules from paper PMC3081424 (Archives of biochemistry and biophysics, 2011) can be followed below.

The target in assay [1] is Gαq. Kind of assay: eCFP/eYFP FRET in living cells, basal. Conditions: sites S887.
In assay [2] the target is T1, eYFP-PLCβ1 (wild type phospholipase Cβ1) (UniProt P10687 1-1216).
T1 sequence (looked up): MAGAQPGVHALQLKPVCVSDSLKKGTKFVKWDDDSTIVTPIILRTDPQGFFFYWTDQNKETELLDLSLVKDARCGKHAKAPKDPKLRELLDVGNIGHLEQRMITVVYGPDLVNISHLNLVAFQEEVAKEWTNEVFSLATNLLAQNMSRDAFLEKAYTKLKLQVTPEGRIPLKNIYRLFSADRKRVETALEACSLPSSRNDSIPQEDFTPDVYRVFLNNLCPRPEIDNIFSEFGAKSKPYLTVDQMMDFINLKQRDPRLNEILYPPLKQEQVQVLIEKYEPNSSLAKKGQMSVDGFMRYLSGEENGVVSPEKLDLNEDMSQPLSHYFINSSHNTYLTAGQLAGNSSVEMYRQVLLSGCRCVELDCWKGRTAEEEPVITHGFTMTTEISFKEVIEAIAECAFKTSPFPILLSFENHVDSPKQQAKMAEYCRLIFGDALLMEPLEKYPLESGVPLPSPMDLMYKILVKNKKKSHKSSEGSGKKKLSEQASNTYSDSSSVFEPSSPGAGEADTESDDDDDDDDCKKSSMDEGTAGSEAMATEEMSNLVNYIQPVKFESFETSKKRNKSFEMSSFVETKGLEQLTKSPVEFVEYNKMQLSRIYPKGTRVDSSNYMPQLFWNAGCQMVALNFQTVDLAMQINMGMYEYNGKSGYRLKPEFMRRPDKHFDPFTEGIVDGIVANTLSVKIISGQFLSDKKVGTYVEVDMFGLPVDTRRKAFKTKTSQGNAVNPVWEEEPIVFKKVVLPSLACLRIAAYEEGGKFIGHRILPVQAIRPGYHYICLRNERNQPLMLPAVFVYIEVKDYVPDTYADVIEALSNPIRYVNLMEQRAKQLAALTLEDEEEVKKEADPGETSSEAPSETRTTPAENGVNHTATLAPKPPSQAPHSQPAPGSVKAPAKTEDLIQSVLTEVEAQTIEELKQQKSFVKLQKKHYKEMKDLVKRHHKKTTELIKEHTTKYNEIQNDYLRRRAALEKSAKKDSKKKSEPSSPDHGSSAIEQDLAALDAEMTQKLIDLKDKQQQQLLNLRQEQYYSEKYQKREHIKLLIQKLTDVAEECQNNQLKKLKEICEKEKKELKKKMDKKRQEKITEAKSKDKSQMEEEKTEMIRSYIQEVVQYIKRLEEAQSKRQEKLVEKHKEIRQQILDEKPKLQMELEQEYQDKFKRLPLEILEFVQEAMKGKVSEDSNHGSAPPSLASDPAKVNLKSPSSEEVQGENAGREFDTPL
The assay is described as follows: FRET or BRET. Background: BRET reads energy transfer from a luciferase to a nearby fluorophore.

The target in assay [3] is T2, eYFP-PLCβ1 S887D (UniProt P10687 1-1216, S887D).
T2 sequence (looked up): T1 sequence (looked up) with S887D
Kind of assay: FRET or BRET.

Assay [4] addresses T3, eYFP-PLCβ1 S887A (UniProt P10687 1-1216, S887A).
T3 sequence (looked up): T1 sequence (looked up) with S887A
Kind of assay: FRET or BRET.

Changes are numbered by the printed parent chain.

In the case of PLCβ1 S887D, the “other: FRET efficiency” value in assay [1] (reference: S887A) is recorded as “same; reference 30±6”; in assay [1] (reference: wild type) it was “same; reference 38±4”.

As for PLCβ1 S887A, the “other: FRET efficiency” value in assay [1] (reference: wild type) is recorded as “same; reference 38±4”.

B1: eCFP-Gαq (natural protein, UniProt P21279 1-359, looked up)
chain: MTLESIMACCLSEEAKEARRINDEIERQLRRDKRDARRELKLLLLGTGESGKSTFIKQMRIIHGSGYSDEDKRGFTKLVYQNIFTAMQAMIRAMDTLKIPYKYEHNKAHAQLVREVDVEKVSAFENPYVDAIKSLWNDPGIQECYDRRREYQLSDSTKYYLNDLDRVADPSYLPTQQDVLRVRVPTTGIIEYPFDLQSVIFRMVDVGGQRSERRKWIHCFENVTSIMFLVALSEYDQVLVESDNENRMEESKALFRTIITYPWFQNSSVILFLNKKDLLEEKIMYSHLVDYFPEYDGPQRDAQAAREFILKMFVDLNPDSDKIIYSHFTCATDTENIRFVFAAVKDTILQLNLKEYNLV
Regarding B1, the FRET efficiency in assay [2] amounted to 38 ± 4%; in assay [3], 39 ± 3%; in assay [4], 30 ± 6%.
